Laboratory results reported in US20210388087A1 (Chugai, published 2021).

Biological target: T1, CD3 epsilon homodimer protein (UniProt P07766 23-126)
T1 construct: also called CD3 (CD3 epsilon)
Experiment: SPR, antibody over immobilised CD3e homodimer;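 note: SPR at 25 °C with CD3 epsilon homodimer amine-coupled to a CM4 sensor chip and antibody flowed over as analyte in HBS-EP+ running buffer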
Protocol: An appropriate amount of CD3 epsilon homodimer protein was immobilized onto Sensor chip CM4 (GE Healthcare Japan Corp.) by the amine coupling method. Then, the antibody having an appropriate concentration was injected thereto as an analyte and allowed to interact with the CD3 epsilon homodimer protein on the sensor chip. Then, the sensor chip was regenerated by the injection of 10 mmol/L glycine-HCl (pH 1.5). The assay was conducted at 25 degrees C., and HBS-EP+(GE Healthcare Japan Corp.) was used as a running buffer. […] Each parameter was calculated using Biacore T200 Evaluation Software (GE Healthcare Japan Corp.).

T1 sequence (P07766 23-126): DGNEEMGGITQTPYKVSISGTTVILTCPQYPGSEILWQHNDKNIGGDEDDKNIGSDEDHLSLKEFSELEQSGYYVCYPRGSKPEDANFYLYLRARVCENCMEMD

Binder	KD ratio to GLS3000
CE115HA000/GLS3000 G91Y (antibody, IgG1, name in Kabat numbering, V domains shown, one-arm IgG1) VH: QVQLVESGGGVVQPGRSLRLSCAASGFTFSNAWMHWVRQAPGKGLEWVAQIKAKSNNYATYYAESVKGRFTISRDDSKNSLYLQMNSLKTEDTAVYYCRYVHYGAYYGVDAWGQGTTVTVSS VL: DIVMTQSPLSLPVTPGEPASISCRSSQSLVHSNRNTYLHWYQQKPGQAPRLLIYKVSNRFSGVPDRFSGSGSGTDFTLKISRVEAEDVGVYYCGQYTQVPYTFGQGTKLEIK	33.8
CE115HA000/GLS3000 H27dA (antibody, IgG1, name in Kabat numbering, V domains shown, one-arm IgG1) VH: QVQLVESGGGVVQPGRSLRLSCAASGFTFSNAWMHWVRQAPGKGLEWVAQIKAKSNNYATYYAESVKGRFTISRDDSKNSLYLQMNSLKTEDTAVYYCRYVHYGAYYGVDAWGQGTTVTVSS VL: DIVMTQSPLSLPVTPGEPASISCRSSQSLVASNRNTYLHWYQQKPGQAPRLLIYKVSNRFSGVPDRFSGSGSGTDFTLKISRVEAEDVGVYYCGQGTQVPYTFGQGTKLEIK	2.57
CE115HA000/GLS3000 H27dE (antibody, IgG1, name in Kabat numbering, V domains shown, one-arm IgG1) VH: QVQLVESGGGVVQPGRSLRLSCAASGFTFSNAWMHWVRQAPGKGLEWVAQIKAKSNNYATYYAESVKGRFTISRDDSKNSLYLQMNSLKTEDTAVYYCRYVHYGAYYGVDAWGQGTTVTVSS VL: DIVMTQSPLSLPVTPGEPASISCRSSQSLVESNRNTYLHWYQQKPGQAPRLLIYKVSNRFSGVPDRFSGSGSGTDFTLKISRVEAEDVGVYYCGQGTQVPYTFGQGTKLEIK	42.3
CE115HA000/GLS3000 H27dF (antibody, IgG1, name in Kabat numbering, V domains shown, one-arm IgG1) VH: QVQLVESGGGVVQPGRSLRLSCAASGFTFSNAWMHWVRQAPGKGLEWVAQIKAKSNNYATYYAESVKGRFTISRDDSKNSLYLQMNSLKTEDTAVYYCRYVHYGAYYGVDAWGQGTTVTVSS VL: DIVMTQSPLSLPVTPGEPASISCRSSQSLVFSNRNTYLHWYQQKPGQAPRLLIYKVSNRFSGVPDRFSGSGSGTDFTLKISRVEAEDVGVYYCGQGTQVPYTFGQGTKLEIK	2.05
CE115HA000/GLS3000 H27dG (antibody, IgG1, name in Kabat numbering, V domains shown, one-arm IgG1) VH: QVQLVESGGGVVQPGRSLRLSCAASGFTFSNAWMHWVRQAPGKGLEWVAQIKAKSNNYATYYAESVKGRFTISRDDSKNSLYLQMNSLKTEDTAVYYCRYVHYGAYYGVDAWGQGTTVTVSS VL: DIVMTQSPLSLPVTPGEPASISCRSSQSLVGSNRNTYLHWYQQKPGQAPRLLIYKVSNRFSGVPDRFSGSGSGTDFTLKISRVEAEDVGVYYCGQGTQVPYTFGQGTKLEIK	3.51
CE115HA000/GLS3000 H27dI (antibody, IgG1, name in Kabat numbering, V domains shown, one-arm IgG1) VH: QVQLVESGGGVVQPGRSLRLSCAASGFTFSNAWMHWVRQAPGKGLEWVAQIKAKSNNYATYYAESVKGRFTISRDDSKNSLYLQMNSLKTEDTAVYYCRYVHYGAYYGVDAWGQGTTVTVSS VL: DIVMTQSPLSLPVTPGEPASISCRSSQSLVISNRNTYLHWYQQKPGQAPRLLIYKVSNRFSGVPDRFSGSGSGTDFTLKISRVEAEDVGVYYCGQGTQVPYTFGQGTKLEIK	7.77
CE115HA000/GLS3000 H27dK (antibody, IgG1, name in Kabat numbering, V domains shown, one-arm IgG1) VH: QVQLVESGGGVVQPGRSLRLSCAASGFTFSNAWMHWVRQAPGKGLEWVAQIKAKSNNYATYYAESVKGRFTISRDDSKNSLYLQMNSLKTEDTAVYYCRYVHYGAYYGVDAWGQGTTVTVSS VL: DIVMTQSPLSLPVTPGEPASISCRSSQSLVKSNRNTYLHWYQQKPGQAPRLLIYKVSNRFSGVPDRFSGSGSGTDFTLKISRVEAEDVGVYYCGQGTQVPYTFGQGTKLEIK	3.8
CE115HA000/GLS3000 H27dL (antibody, IgG1, name in Kabat numbering, V domains shown, one-arm IgG1) VH: QVQLVESGGGVVQPGRSLRLSCAASGFTFSNAWMHWVRQAPGKGLEWVAQIKAKSNNYATYYAESVKGRFTISRDDSKNSLYLQMNSLKTEDTAVYYCRYVHYGAYYGVDAWGQGTTVTVSS VL: DIVMTQSPLSLPVTPGEPASISCRSSQSLVLSNRNTYLHWYQQKPGQAPRLLIYKVSNRFSGVPDRFSGSGSGTDFTLKISRVEAEDVGVYYCGQGTQVPYTFGQGTKLEIK	3.37
CE115HA000/GLS3000 H27dM (antibody, IgG1, name in Kabat numbering, V domains shown, one-arm IgG1) VH: QVQLVESGGGVVQPGRSLRLSCAASGFTFSNAWMHWVRQAPGKGLEWVAQIKAKSNNYATYYAESVKGRFTISRDDSKNSLYLQMNSLKTEDTAVYYCRYVHYGAYYGVDAWGQGTTVTVSS VL: DIVMTQSPLSLPVTPGEPASISCRSSQSLVMSNRNTYLHWYQQKPGQAPRLLIYKVSNRFSGVPDRFSGSGSGTDFTLKISRVEAEDVGVYYCGQGTQVPYTFGQGTKLEIK	3.43
CE115HA000/GLS3000 H27dN (antibody, IgG1, name in Kabat numbering, V domains shown, one-arm IgG1) VH: QVQLVESGGGVVQPGRSLRLSCAASGFTFSNAWMHWVRQAPGKGLEWVAQIKAKSNNYATYYAESVKGRFTISRDDSKNSLYLQMNSLKTEDTAVYYCRYVHYGAYYGVDAWGQGTTVTVSS VL: DIVMTQSPLSLPVTPGEPASISCRSSQSLVNSNRNTYLHWYQQKPGQAPRLLIYKVSNRFSGVPDRFSGSGSGTDFTLKISRVEAEDVGVYYCGQGTQVPYTFGQGTKLEIK	3.43
CE115HA000/GLS3000 H27dP (antibody, IgG1, name in Kabat numbering, V domains shown, one-arm IgG1) VH: QVQLVESGGGVVQPGRSLRLSCAASGFTFSNAWMHWVRQAPGKGLEWVAQIKAKSNNYATYYAESVKGRFTISRDDSKNSLYLQMNSLKTEDTAVYYCRYVHYGAYYGVDAWGQGTTVTVSS VL: DIVMTQSPLSLPVTPGEPASISCRSSQSLVPSNRNTYLHWYQQKPGQAPRLLIYKVSNRFSGVPDRFSGSGSGTDFTLKISRVEAEDVGVYYCGQGTQVPYTFGQGTKLEIK	9.21
CE115HA000/GLS3000 H27dQ (antibody, IgG1, name in Kabat numbering, V domains shown, one-arm IgG1) VH: QVQLVESGGGVVQPGRSLRLSCAASGFTFSNAWMHWVRQAPGKGLEWVAQIKAKSNNYATYYAESVKGRFTISRDDSKNSLYLQMNSLKTEDTAVYYCRYVHYGAYYGVDAWGQGTTVTVSS VL: DIVMTQSPLSLPVTPGEPASISCRSSQSLVQSNRNTYLHWYQQKPGQAPRLLIYKVSNRFSGVPDRFSGSGSGTDFTLKISRVEAEDVGVYYCGQGTQVPYTFGQGTKLEIK	7.48
CE115HA000/GLS3000 H27dR (antibody, IgG1, name in Kabat numbering, V domains shown, one-arm IgG1) VH: QVQLVESGGGVVQPGRSLRLSCAASGFTFSNAWMHWVRQAPGKGLEWVAQIKAKSNNYATYYAESVKGRFTISRDDSKNSLYLQMNSLKTEDTAVYYCRYVHYGAYYGVDAWGQGTTVTVSS VL: DIVMTQSPLSLPVTPGEPASISCRSSQSLVRSNRNTYLHWYQQKPGQAPRLLIYKVSNRFSGVPDRFSGSGSGTDFTLKISRVEAEDVGVYYCGQGTQVPYTFGQGTKLEIK	2.35
CE115HA000/GLS3000 H27dS (antibody, IgG1, name in Kabat numbering, V domains shown, one-arm IgG1) VH: QVQLVESGGGVVQPGRSLRLSCAASGFTFSNAWMHWVRQAPGKGLEWVAQIKAKSNNYATYYAESVKGRFTISRDDSKNSLYLQMNSLKTEDTAVYYCRYVHYGAYYGVDAWGQGTTVTVSS VL: DIVMTQSPLSLPVTPGEPASISCRSSQSLVSSNRNTYLHWYQQKPGQAPRLLIYKVSNRFSGVPDRFSGSGSGTDFTLKISRVEAEDVGVYYCGQGTQVPYTFGQGTKLEIK	3.05
CE115HA000/GLS3000 H27dT (antibody, IgG1, name in Kabat numbering, V domains shown, one-arm IgG1) VH: QVQLVESGGGVVQPGRSLRLSCAASGFTFSNAWMHWVRQAPGKGLEWVAQIKAKSNNYATYYAESVKGRFTISRDDSKNSLYLQMNSLKTEDTAVYYCRYVHYGAYYGVDAWGQGTTVTVSS VL: DIVMTQSPLSLPVTPGEPASISCRSSQSLVTSNRNTYLHWYQQKPGQAPRLLIYKVSNRFSGVPDRFSGSGSGTDFTLKISRVEAEDVGVYYCGQGTQVPYTFGQGTKLEIK	13000
CE115HA000/GLS3000 H27dV (antibody, IgG1, name in Kabat numbering, V domains shown, one-arm IgG1) VH: QVQLVESGGGVVQPGRSLRLSCAASGFTFSNAWMHWVRQAPGKGLEWVAQIKAKSNNYATYYAESVKGRFTISRDDSKNSLYLQMNSLKTEDTAVYYCRYVHYGAYYGVDAWGQGTTVTVSS VL: DIVMTQSPLSLPVTPGEPASISCRSSQSLVVSNRNTYLHWYQQKPGQAPRLLIYKVSNRFSGVPDRFSGSGSGTDFTLKISRVEAEDVGVYYCGQGTQVPYTFGQGTKLEIK	354
CE115HA000/GLS3000 H27dW (antibody, IgG1, name in Kabat numbering, V domains shown, one-arm IgG1) VH: QVQLVESGGGVVQPGRSLRLSCAASGFTFSNAWMHWVRQAPGKGLEWVAQIKAKSNNYATYYAESVKGRFTISRDDSKNSLYLQMNSLKTEDTAVYYCRYVHYGAYYGVDAWGQGTTVTVSS VL: DIVMTQSPLSLPVTPGEPASISCRSSQSLVWSNRNTYLHWYQQKPGQAPRLLIYKVSNRFSGVPDRFSGSGSGTDFTLKISRVEAEDVGVYYCGQGTQVPYTFGQGTKLEIK	1.86
CE115HA000/GLS3000 H27dY (antibody, IgG1, name in Kabat numbering, V domains shown, one-arm IgG1) VH: QVQLVESGGGVVQPGRSLRLSCAASGFTFSNAWMHWVRQAPGKGLEWVAQIKAKSNNYATYYAESVKGRFTISRDDSKNSLYLQMNSLKTEDTAVYYCRYVHYGAYYGVDAWGQGTTVTVSS VL: DIVMTQSPLSLPVTPGEPASISCRSSQSLVYSNRNTYLHWYQQKPGQAPRLLIYKVSNRFSGVPDRFSGSGSGTDFTLKISRVEAEDVGVYYCGQGTQVPYTFGQGTKLEIK	1.98
CE115HA000/GLS3000 H34A (antibody, IgG1, name in Kabat numbering, V domains shown, one-arm IgG1) VH: QVQLVESGGGVVQPGRSLRLSCAASGFTFSNAWMHWVRQAPGKGLEWVAQIKAKSNNYATYYAESVKGRFTISRDDSKNSLYLQMNSLKTEDTAVYYCRYVHYGAYYGVDAWGQGTTVTVSS VL: DIVMTQSPLSLPVTPGEPASISCRSSQSLVHSNRNTYLAWYQQKPGQAPRLLIYKVSNRFSGVPDRFSGSGSGTDFTLKISRVEAEDVGVYYCGQGTQVPYTFGQGTKLEIK	1.18
CE115HA000/GLS3000 H34D (antibody, IgG1, name in Kabat numbering, V domains shown, one-arm IgG1) VH: QVQLVESGGGVVQPGRSLRLSCAASGFTFSNAWMHWVRQAPGKGLEWVAQIKAKSNNYATYYAESVKGRFTISRDDSKNSLYLQMNSLKTEDTAVYYCRYVHYGAYYGVDAWGQGTTVTVSS VL: DIVMTQSPLSLPVTPGEPASISCRSSQSLVHSNRNTYLDWYQQKPGQAPRLLIYKVSNRFSGVPDRFSGSGSGTDFTLKISRVEAEDVGVYYCGQGTQVPYTFGQGTKLEIK	2100
CE115HA000/GLS3000 H34E (antibody, IgG1, name in Kabat numbering, V domains shown, one-arm IgG1) VH: QVQLVESGGGVVQPGRSLRLSCAASGFTFSNAWMHWVRQAPGKGLEWVAQIKAKSNNYATYYAESVKGRFTISRDDSKNSLYLQMNSLKTEDTAVYYCRYVHYGAYYGVDAWGQGTTVTVSS VL: DIVMTQSPLSLPVTPGEPASISCRSSQSLVHSNRNTYLEWYQQKPGQAPRLLIYKVSNRFSGVPDRFSGSGSGTDFTLKISRVEAEDVGVYYCGQGTQVPYTFGQGTKLEIK	8.03
